Target: the molecule itself
Assay: SEC; cell lysate of 32D BCR-ABL cells on Superdex 200 10/300GL, 50 mM phosphate, 0.15 M NaCl, pH 7.2; fractions by UV absorbance and western blot

B1: Flag-tagged K270R mutant PKM2 expressed in 32D BCR-ABL cells (enzyme)
chain: not shown
notes: pyruvate kinase, M2 isoform (PKM2); also called PKM2^K270R; KR; source: 32D BCR-ABL cells, ectopically expressed, in lysate
stoichiometry N: 4
